Experimental data from paper PMC10879702, “Host ZCCHC3 blocks HIV-1 infection and production through a dual mechanism”.

Columns and labels:
[1] = system: GST-ZCCHC3 MF R168/247S (human); assay: pull-down
[2] = system: GST-ZCCHC3 MF R168S (human); assay: pull-down
[3] = system: GST-ZCCHC3 MF R247S (human); assay: pull-down
[4] = molecular target: T1, GST-ZCCHC3 MF (middle-fold domain) (human, UniProt Q9NUD5 159-334); assay: pull-down; Pull-down: 20 mM Tris-HCl pH 7.4, 30 mM NaCl, 0.1 mM MgCl2, 1 mM DTT, RNase inhibitor, 10 min; EMSA: 40 mM Tris pH 8.0, 2 mM KCl, 1 mM MgCl2, 1% NP-40, 1 mM DTT, 25 C, 10 min; conditions: protein: recombinant; tags: GST; hairpin
T1 sequence: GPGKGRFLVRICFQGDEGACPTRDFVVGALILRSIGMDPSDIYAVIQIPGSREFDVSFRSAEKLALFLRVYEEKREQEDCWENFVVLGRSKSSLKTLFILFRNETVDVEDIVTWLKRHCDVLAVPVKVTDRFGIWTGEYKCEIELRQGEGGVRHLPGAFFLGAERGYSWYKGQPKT

[5] = molecular target: T1, GST-ZCCHC3 MF (middle-fold domain); assay: pull-down; conditions: protein: recombinant; tags: GST; hairpin

HIV-1 5' LTR (R-U5) RNA
binding signal [1]: 15 % of WT | binding signal [2]: 50 % of WT | binding signal [3]: 50 % of WT

CUAGAGAUCCCUCAGACCCUUUUAGUCAGUGUGGAAAAUCUCUAG (structured_RNA) [HIV-1 LTR SL3]
binding result [4]: binds

CCACUGCUUAAGCCUCAAUAAAGCUUGCCUUGAGUGCUCAAAGUAGUGU (structured_RNA) [HIV-1 LTR SL2]
binding result [5]: binds

UCUCUGGUUAGACCAGAUCUGAGCCUGGGAGCUCUCUGGCUAACUAGGGA (structured_RNA) [HIV-1 LTR SL1]
binding result [5]: binds
